Data: publication PMC12154155

How the values were obtained:
[1] = biological target: RsbS (wild type), Listeria monocytogenes (Listeria monocytogenes); assay: cryo-EM structure; stressosomes assembled from purified RsbR, RsbS and RsbT (1:2:5 molar ratio, overnight, 4 °C), purified on Superose 6 in 20 mM Tris-HCl pH 8.5, 250 mM NaCl, 1 mM DTT, 1 mM ADP; 50-150 ug/mL on GO-amino grids; C1, no symmetry imposed; only RsbR and RsbS modelled
[2] = biological target: RsbS S56A, Listeria monocytogenes (Listeria monocytogenes); assay: as above

Q: For “RsbR T175A, Listeria monocytogenes (natural protein)”, which stoichiometry N [1] is on record?
A: 2 RsbR to RsbS

Q: “RsbR T209E, Listeria monocytogenes (natural protein)” was tested. Which stoichiometry N [1] did it give?
A: 1 RsbR to RsbS

Q: How did the stoichiometry N [2] turn out when “RsbR (wild type), Listeria monocytogenes (from UniProt Q8GD19 1-278) (natural protein)” was run?
A: 2 RsbR to RsbS

Q: For “RsbR T209A, Listeria monocytogenes (natural protein)”, which stoichiometry N [1] is on record?
A: 3 RsbR to RsbS
